In article PMC8930183, “Structure of the Pf12 and Pf41 heterodimeric complex of Plasmodium falciparum 6-cysteine proteins” (FEMS Microbes, 2022):

What was measured:
Conditions in all cases: both partners purified
[1] = molecular target: T1, Pf12 D1D2 (residues 28-304), untagged (Plasmodium falciparum, UniProt C6KSX0); assay: BLI; Octet RED96e; nanobodies loaded on NTA sensors; untagged Pf12 or Pf41 (6-200 nM) or their domains in solution; PBS pH 7.4, 0.1% BSA, 0.05% TWEEN-20, 25°C; global 1:1 fit
T1 construct: Pf12, Plasmodium falciparum 6-cysteine protein, residues N28-S304 (domains D1 and D2); lacks the signal peptide and the GPI-anchor site; After TEV cleavage three residues, GAS, remain at the N-terminus as cloning artefacts; N-glycosylation sites kept; treated with PNGase F before crystallisation; also called Pf12 wildtype; source: Spodoptera frugiperda 21 cells, secreted into growth media, …

[2] = molecular target: T2, Pf41 D1D2 (residues 21-368), untagged (Plasmodium falciparum, UniProt Q8I1Y0); assay: as above
T2 construct: Pf41, Plasmodium falciparum 6-cysteine protein, residues K21-S368 (D1 with the inserted-domain-like region ID, and D2); lacks the signal peptide and ten C-terminal residues; After TEV cleavage three residues, GAS, remain at the N-terminus as cloning artefacts; N-glycosylation sites kept; treated with PNGase F before crystallisation; also called Pf41 wildtype; source: Spodoptera frugiperda 21 …

[3] = molecular target: T3, Pf12 D2 (residues E174-S304) (Plasmodium falciparum, UniProt C6KSX0); assay: as above
T3 construct: Pf12, Plasmodium falciparum, C-terminal 6-cys domain D2, residues E174-S304; also called Pf12 D2 domain; source: Spodoptera frugiperda 21 cells, purified by the same protocol as Pf12 D1D2; not shown: His8, N-terminal, cleaved

[4] = molecular target: T4, octa-histidine tagged Pf41 D1D2 (residues 21-368) (Plasmodium falciparum, UniProt Q8I1Y0 21-368); assay: BLI; Octet RED96e; octa-histidine tagged Pf41 loaded on NTA sensors; untagged Pf12 wildtype, mutant or single domain 31-1000 nM; PBS pH 7.4, 0.1% BSA, 0.05% TWEEN-20, 25°C; read-out relative maximum response against wildtype
T4 construct: Pf41, Plasmodium falciparum 6-cysteine protein, residues K21-S368; TEV-cleavable tag left on; loaded on NTA sensors; also called tagged wildtype Pf41; source: Spodoptera frugiperda 21 cells, secreted into growth media, purified as tagged protein (Ni-IMAC, SEC); not shown: His8, N-terminal, kept
T4 sequence: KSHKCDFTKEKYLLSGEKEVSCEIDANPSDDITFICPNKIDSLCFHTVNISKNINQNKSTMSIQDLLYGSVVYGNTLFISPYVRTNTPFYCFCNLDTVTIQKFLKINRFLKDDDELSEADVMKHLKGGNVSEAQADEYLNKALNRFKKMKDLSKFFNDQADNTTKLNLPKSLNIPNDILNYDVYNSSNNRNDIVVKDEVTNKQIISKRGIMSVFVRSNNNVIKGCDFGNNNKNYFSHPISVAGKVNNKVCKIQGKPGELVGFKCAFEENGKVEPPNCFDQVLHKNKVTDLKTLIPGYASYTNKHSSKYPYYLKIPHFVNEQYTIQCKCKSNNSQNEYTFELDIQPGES

Binder	Kd [1]	binding result [2]	binding result [1]	binding result [3]	binding result [4]
nanobody C9 (VHH, alpaca, immunised with Pf12-Pf41 complex; Pf12-specific; source: E. coli WK6, periplasmic extract, purified (HisTrap, SEC)) VHH: QVQLQESGGGLVQPGGSLRLSCAASGFTLDYYAIGWFRQAPGKEREGVSCISSSGGSTYYADSVKGRSTISRDNAKNTVYLQMNSLKPEDTAVYYCATDCLRDYGLEYVPGRYDYWGQGTQVTVSS	< 0.01 nM	no binding	–	–	–
nanobody C12 (VHH, alpaca, immunised with Pf12-Pf41 complex; Pf12-specific; source: E. coli WK6, periplasmic extract, purified (HisTrap, SEC)) VHH: QVQLQESGGGLVQAGGSLRLSCAASGRTFSSYSMGWFRQAPGKQRELVAAISSGGSTDYTDSVKGRFTISRDNAKNTVYLQMNSLKPEDTAVYYCAAGDYSDYVGMWDIWGQGTQVTVSS	–	no binding	binds	binds	–
nanobody H11 (VHH, alpaca, immunised with Pf12-Pf41 complex; Pf12-specific; source: E. coli WK6, periplasmic extract, purified (HisTrap, SEC)) VHH: QVQLQESGGGLVQPGGSLRLSCAGSGFTLDHYAIGWFRQAPGKEREGVSCIISSDSSTYYTDSVKGRFTISRDNAKNTVYLQMNSLKPEDTAVYYCATEKIVCASGFIVDYGMDYCGKGTQVTVSS	–	no binding	binds	binds	–
nanobody B11 (VHH, alpaca, immunised with Pf12-Pf41 complex; Pf12-specific; source: E. coli WK6, periplasmic extract, purified (HisTrap, SEC)) VHH: QVQLQESGGGLVQAGGSLRLSCAASGRTFSSYAMGWFRQAPGKEREFVAAISWNGGRTYYADSVKGRFTISRDNAKNTVYLQMNSLKPEDTAVYYCAADPTGTVDDETGIYVYWGQGTQVTVSS	–	no binding	binds	binds	–
Pf12 D1D2 F241L (domain or fragment, Pf12, Plasmodium falciparum, residues N28-S304 (D1D2); source: Spodoptera frugiperda 21 cells, purified (Ni-IMAC, TEV cleavage, SEC); not shown: His8, N-terminal, cleaved) NLTCDFNDVYKLEFHPNQQTSVTKLCNLTPNVLEKVTIKCGSDKLNYNLYPPTCFEEVYASRNMMHLKKIKEFVIGSSMFMRRSLTPNKINEVSFRIPPNMMPEKPIYCFCENKKTITINGSNGNPSSKKDIINRGIVEIIIPSLNEKVKGCDFTTSESTIFSKGYSINEISNKSSNNQQDIVCTVKAHANDLIGFKCPSNYSVEPHDCFVSALNLSGKNENLENKLKLTNIIMDHYNNTFYSRLPSLISDNWKFFCVCSKDNEKKLVFTVEASISS	–	–	–	–	binds
Pf12 D1D2 H234A (domain or fragment, Pf12, Plasmodium falciparum, residues N28-S304 (D1D2); source: Spodoptera frugiperda 21 cells, purified (Ni-IMAC, TEV cleavage, SEC); not shown: His8, N-terminal, cleaved) NLTCDFNDVYKLEFHPNQQTSVTKLCNLTPNVLEKVTIKCGSDKLNYNLYPPTCFEEVYASRNMMHLKKIKEFVIGSSMFMRRSLTPNKINEVSFRIPPNMMPEKPIYCFCENKKTITINGSNGNPSSKKDIINRGIVEIIIPSLNEKVKGCDFTTSESTIFSKGYSINEISNKSSNNQQDIVCTVKAHANDLIGFKCPSNYSVEPADCFVSAFNLSGKNENLENKLKLTNIIMDHYNNTFYSRLPSLISDNWKFFCVCSKDNEKKLVFTVEASISS	–	–	–	–	binds
Pf12 D1D2 M108A (domain or fragment, Pf12, Plasmodium falciparum, residues N28-S304 (D1D2); source: Spodoptera frugiperda 21 cells, purified (Ni-IMAC, TEV cleavage, SEC); not shown: His8, N-terminal, cleaved) NLTCDFNDVYKLEFHPNQQTSVTKLCNLTPNVLEKVTIKCGSDKLNYNLYPPTCFEEVYASRNMMHLKKIKEFVIGSSMFARRSLTPNKINEVSFRIPPNMMPEKPIYCFCENKKTITINGSNGNPSSKKDIINRGIVEIIIPSLNEKVKGCDFTTSESTIFSKGYSINEISNKSSNNQQDIVCTVKAHANDLIGFKCPSNYSVEPHDCFVSAFNLSGKNENLENKLKLTNIIMDHYNNTFYSRLPSLISDNWKFFCVCSKDNEKKLVFTVEASISS	–	–	–	–	binds
Pf12 D1D2 M106A (domain or fragment, Pf12, Plasmodium falciparum, residues N28-S304 (D1D2); source: Spodoptera frugiperda 21 cells, purified (Ni-IMAC, TEV cleavage, SEC); not shown: His8, N-terminal, cleaved) NLTCDFNDVYKLEFHPNQQTSVTKLCNLTPNVLEKVTIKCGSDKLNYNLYPPTCFEEVYASRNMMHLKKIKEFVIGSSAFMRRSLTPNKINEVSFRIPPNMMPEKPIYCFCENKKTITINGSNGNPSSKKDIINRGIVEIIIPSLNEKVKGCDFTTSESTIFSKGYSINEISNKSSNNQQDIVCTVKAHANDLIGFKCPSNYSVEPHDCFVSAFNLSGKNENLENKLKLTNIIMDHYNNTFYSRLPSLISDNWKFFCVCSKDNEKKLVFTVEASISS	–	–	–	–	binds
Pf12 D1D2 R110A (domain or fragment, Pf12, Plasmodium falciparum, residues N28-S304 (D1D2); source: Spodoptera frugiperda 21 cells, purified (Ni-IMAC, TEV cleavage, SEC); not shown: His8, N-terminal, cleaved) NLTCDFNDVYKLEFHPNQQTSVTKLCNLTPNVLEKVTIKCGSDKLNYNLYPPTCFEEVYASRNMMHLKKIKEFVIGSSMFMRASLTPNKINEVSFRIPPNMMPEKPIYCFCENKKTITINGSNGNPSSKKDIINRGIVEIIIPSLNEKVKGCDFTTSESTIFSKGYSINEISNKSSNNQQDIVCTVKAHANDLIGFKCPSNYSVEPHDCFVSAFNLSGKNENLENKLKLTNIIMDHYNNTFYSRLPSLISDNWKFFCVCSKDNEKKLVFTVEASISS	–	–	–	–	binds
Pf12 D1D2 R109A (domain or fragment, Pf12, Plasmodium falciparum, residues N28-S304 (D1D2); source: Spodoptera frugiperda 21 cells, purified (Ni-IMAC, TEV cleavage, SEC); not shown: His8, N-terminal, cleaved) NLTCDFNDVYKLEFHPNQQTSVTKLCNLTPNVLEKVTIKCGSDKLNYNLYPPTCFEEVYASRNMMHLKKIKEFVIGSSMFMARSLTPNKINEVSFRIPPNMMPEKPIYCFCENKKTITINGSNGNPSSKKDIINRGIVEIIIPSLNEKVKGCDFTTSESTIFSKGYSINEISNKSSNNQQDIVCTVKAHANDLIGFKCPSNYSVEPHDCFVSAFNLSGKNENLENKLKLTNIIMDHYNNTFYSRLPSLISDNWKFFCVCSKDNEKKLVFTVEASISS	–	–	–	–	binds
Pf12 D1D2 R123A (domain or fragment, Pf12, Plasmodium falciparum, residues N28-S304 (D1D2); source: Spodoptera frugiperda 21 cells, purified (Ni-IMAC, TEV cleavage, SEC); not shown: His8, N-terminal, cleaved) NLTCDFNDVYKLEFHPNQQTSVTKLCNLTPNVLEKVTIKCGSDKLNYNLYPPTCFEEVYASRNMMHLKKIKEFVIGSSMFMRRSLTPNKINEVSFAIPPNMMPEKPIYCFCENKKTITINGSNGNPSSKKDIINRGIVEIIIPSLNEKVKGCDFTTSESTIFSKGYSINEISNKSSNNQQDIVCTVKAHANDLIGFKCPSNYSVEPHDCFVSAFNLSGKNENLENKLKLTNIIMDHYNNTFYSRLPSLISDNWKFFCVCSKDNEKKLVFTVEASISS	–	–	–	–	binds
nanobody A10 (VHH, alpaca, immunised with Pf12-Pf41 complex; Pf12-specific; source: E. coli WK6, periplasmic extract, purified (HisTrap, SEC)) VHH: QVQLQESGGGFVQPGGSLRLSCAASGFTLDYYFIGWFRQAPGKEREGVSCISSSDGSTYYAESVKGRFTISRDNAKNTVYLQMNSLKPEDTAVYYCATDKIVCSSDFIVDYGMDSRGKGTQVTVSS	< 0.01 nM	no binding	–	–	–
nanobody D12 (VHH, alpaca, immunised with Pf12-Pf41 complex; Pf12-specific; source: E. coli WK6, periplasmic extract, purified (HisTrap, SEC)) VHH: QVQLQESGGGLVEAGGSLRLSCAASTRTFSSLVMGWFRQAPGKERELVAAISRSGDSTDYTDSVKGRFTISRDNAKNTVYLQMNSLKPEDTAVYSCAADPTGVDSSLAVGLWVYWGQGTQVTVSS	–	no binding	binds	binds	–
nanobody B5 (VHH, alpaca, immunised with Pf12-Pf41 complex; Pf12-specific; The 'Nb B5 of PDB ID 7KJH' used as a search model may be another nanobody of the same label; source: E. coli WK6, periplasmic extract, purified (HisTrap, SEC)) VHH: QVQLQESGGGLVQPGGSLRLSCAASGFTLDEYAMGWFRQAPGKEREGISCISSSDGTTFYADSVKGRFTISRDNAKNTVYLQMNSLKPEDTAVYYCATDCVGSYSRYWGQGTQVTVSS	< 0.01 nM	no binding	–	–	–
nanobody C1 (VHH, alpaca, immunised with Pf12-Pf41 complex; Pf12-specific; source: E. coli WK6, periplasmic extract, purified (HisTrap, SEC)) VHH: QVQLQESGGGLVQPGASLRLSCTVSGIIMADHAIGWFRQAPGKEREGIACFIRSDGTTYYSDSAKGRFTISRDNAKNTVYLQMNSLKPEDTADYYCATGKIVCANGFIVDYGSDYRGKGTQVTVSS	–	no binding	binds	binds	–
